B1: TPR t1 (parent)
chain: GACCAAUCUGCCCUCAGAGCUCGAGAACAUCUUCGGAUGCAGAGGAGGCAGGCUUCGGUGGCGCGAUAGCGCCAACGUCCUCAACCUCCAAUGCAUCCCACCACAUGAUGAUGCCUGAAGAGCCUUGGUUUUUUG

Variants of: B1
Experiment: polymerase ribozyme fitness, log enrichment relative to wild type (log ratio); higher = more active; in vitro selection for triplet polymerase activity
Summary of the method: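 Both subunits of a heterodimeric triplet polymerase ribozyme were given their own mutant library, built by PCR and transcribed. Each library was annealed with a biotinylated primer, the partner subunit and triplets, incubated frozen at −7 °C, and its extended constructs gel-excised, captured on streptavidin beads and amplified by RT-PCR, all in one round done in triplicate. Fitness is the logarithm of genotype enrichment relative to wild-type enrichment, with replicates averaged by inverse-variance weighting. That logarithm is base 2, and Illumina-sequenced genotypes needed ≥10 input reads and ≥1 read per output.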

Variant | polymerase ribozyme fitness (log ratio)
G60U U126C | -0.44
G61C U81A C124G U132C | -2.36
G60U A91G | -1.56
G61U U133G | -0.566
C62U C64U | -0.305
C62G U112G | -1.83
C62A C82A C85U | -2.3
C62U C98U A111U G120C | -4.23
C62G C79U | -1.14
C62U G120A | 1.09
G61A U112G G120U G122C | -1.64
C62U C89G G93A C101U G113C C114U G127C | -4.42
G61C C104U G110A | -2.86
C62U A83G | -1.18
C62A U81A G93A | -2.69
G61A G135A | -1.88
G60C A111U G128U U133A | -6.08
G61U C73U A121G | 0.407
G61A U78G C85U A90C | -2.22
G61A C62U C73A | -2.37
C62U U129C | 0.0239
C62U U129G | -1.28
G60U U92A | -3.34
G61A A66G C104A | -3.27

Variant | polymerase ribozyme fitness (log ratio)
C62U U78G C86U | -0.761
G61A C86G G93C | -2.03
G60C A90C C97U G117C | -6.07
C62U A95U C114U | -3.03
C62U U87C | -0.408
G61A U78G G120A | 0.458
G61A U78G A84U C86A | -1.71
C62U C89U | -0.519
G60A G135A | -0.733
G60A G135U | -0.711
G60C U92G | -3.59
C62A A83U A90U A91C | -3.43
G60U C80G | -4.54
G61A C97U | -0.149
G60U A83U A108C C114G G117C | -5.39
C62G G120U | -1.64
G61U A90U | -2.11
G60U U132A | -0.036
G60C C80U | -4.1
G61C C89A U132C | -3.89
G60C U130G | -1.28
G61U A84G U96G | -0.74
G61A G107U | -4.9
G60A U78A U92C | -1.57

Variant | polymerase ribozyme fitness (log ratio)
G61U U81G U129A | -4.47
C62A A95U A121C | -0.641
C62A G107A | -5.05
C62A C85G | -2.62
G61A U112A | 1.31
G61A U112G | 0.603
G61C C98U C123G U133A G135U | -1.22
C62U G135U | -0.561
G61U U81C C86G G113U A119U | -6.31
G61A G110U U132A | -0.611
G60A U92A | -3.24
G60U A119G | -0.151
G61U U125G | -0.883
C62U U125G G127C | -1.39
G60U C104U | 0.494
C62A | -0.872
C62U | -0.118
C62G | -1.53
G61U G63A U96A A103G A111U G113A U132C | -6.45
G60C C123A | -0.064
G61C C123G | 0.189
C62U C123U | 1.47
G60C A74C | -4.67
G61U A118G | 0.1

Variant | polymerase ribozyme fitness (log ratio)
G61C C89U G113C G120C | -4.9
C62A G120C | -0.534
G60A G110C | -3.08
G61A U92A C123A G127U | -1.55
C62A A84U | -1.52
C62U C124U | 0.977
C62A C72G U112G | -1.95
G60C C102U G128A | -4.97
G60U G93C | -0.936
G60U G93A | -0.449
G61U C89A | -1.5
G61A C104U | 0.241
G61A A118G | -0.742
C62A G77U C114G | -4.81
C62A A66U | -3.17
C62U A84C | -1.06
G61C C80G G117C | -7.35
C62U A84C C89A C123U | -1.62
C62A C101A A111C | -1.51
C62A C79U C88G G135U | -2.35
G60C C82G | -0.49
G60C C82A | -0.574
G60C G69A | -4.01
G61A U81G A105U U112G | -5.6

Variant | polymerase ribozyme fitness (log ratio)
C62A C72U G93C | -1.64
G60U C85A | -0.541
C62G C102A C115A | -2.67
G61U U106A U116C | -0.163
G60C G61A U96A | -2.15
G61C C89G G113U U133C | -4.45
C62U C73U C79U C80U U112A | -3.4
G60C G77A | -1.47
C62U G69A | -3.76
G61A A84C | 0.126
C62A C99U | -3.69
G61U U96A | -0.797
C62U C98A A103C U129C | -6.12
C62U A121G | 2.41
G61U C86A A103C | -5.4
C62G C76G U112A | -3.99
G61U C94U | 0.338
C62U U133G | -1.15
C62A A95U | -1.55
G60C C114A C115G G122C U133C | -4.6
G60U A91U A121U | 0.38
G61A U116A | -2.68
G60C U130A U133A | -1.59
C62U C72U | -1.03

Variant | polymerase ribozyme fitness (log ratio)
G61U A68U U87A C114G | -6.91
G60A U116C A118C | -3.05
G60U U131C | -0.0582
G61U U78C C89G | -1.23
G60U C86U A103U | -6.46
G61C A83G | -3.02
G61A C123G | 1.69
G61U U87A A121U | 1.5
G60U C104U U116A | -2.99
G61C A90U G93A | -4.85
C62A C101A | -2.84
C62A C101U | -2.3
G61C G107A U112A G117U | -6.86
G61C C79U C101G | -1.64
G60U C97A | -5.24
G60U C97U | -1.7
G61A A111U | -2.88
G61C C104U A111C | -1.59
C62G G122U | -1.08
G61A G93A C114G | -2.13
C62U U78C U106C | -0.597
G60C G120U | 0.528
G61A A91C | -0.737
G60U C124G | 1.38

Variant | polymerase ribozyme fitness (log ratio)
C62A U133A | -1.52
C62G C82U G117C | -5.97
G60A U125A | -0.369
G60U G93A C98G | -6.44
G60C G110U U125G | -2.79
C62G U78C | -1.87
G61U C101A U125C | -4.61
G61C U126A | -2.98
G60C A121G | 1.05
G61A C88A C114G U116C G122A | -5.26
G61C C104A | -3.92
C62A C114A | -2.71
G60C A95C | -1.25
G60U C114U | -2.1
G61U A100C U106A U112A | 1.26
G61U C82A | -0.605
C62G A105G | -4.99
G61A G110A | -0.516
C62U C88G C114G | -3.23
G61A U78C | -0.183
G60U G120A | 1.38
G60U G120U | 0.205
G61A G113A U130G | -1.32

Reference: the RNAGym collection of RNA variant scans (doi:10.1073/pnas.2313332121)
